3 molecules from US20240109962A1 (SPARX BIOSCIENCE, published 2024) can be followed below.

For test [1], the target named is T1, human LILRB2 expressed on cells (293T-LILRB2, CHO-K1-LILRB2) (human, UniProt Q8N423 22-597).
T1 construct: whole, on cells; the cell line is named under assay; also called HEK293T-LILRB2
The experiment in a line: flow cytometry, blockade of His-tagged HLA-G tetramer binding to 293T-LILRB2 cells; fit table under the graph, row headed EC50. The method, then: (§1) Serial diluted humanized LILRB2 antibodies were then added to the mixture and incubated at room temperature for another 45 minutes. The binding of HLA-G/LILRB2 was detected afterwards using a secondary PE-labeled anti-His tag antibody via flow cytometry.

Test [2] addresses T1, human LILRB2 expressed on cells …. Kind of test: flow cytometry on 293T-LILRB2 cells, serial dilution, APC anti-human IgG; fit table under the graph. From the text: (§2) The cells were washed and then subject to flow cytometry to measure levels of fluorescent signals.
Test [3] shares this target. Kind of test: flow cytometry, blockade of His-tagged HLA-G tetramer binding to 293T-LILRB2 cells; fit table under the graph. The method, then: as §1
Test [4] has the same target. Kind of test: flow cytometry on 293T-LILRB2 cells, serial dilution, APC anti-human IgG; fit table under the graph.
Description: as §2
The source holds these as a separate data set.

Read-outs that look alike come from different tables or passages of the source.

T1 sequence (Q8N423 22-597): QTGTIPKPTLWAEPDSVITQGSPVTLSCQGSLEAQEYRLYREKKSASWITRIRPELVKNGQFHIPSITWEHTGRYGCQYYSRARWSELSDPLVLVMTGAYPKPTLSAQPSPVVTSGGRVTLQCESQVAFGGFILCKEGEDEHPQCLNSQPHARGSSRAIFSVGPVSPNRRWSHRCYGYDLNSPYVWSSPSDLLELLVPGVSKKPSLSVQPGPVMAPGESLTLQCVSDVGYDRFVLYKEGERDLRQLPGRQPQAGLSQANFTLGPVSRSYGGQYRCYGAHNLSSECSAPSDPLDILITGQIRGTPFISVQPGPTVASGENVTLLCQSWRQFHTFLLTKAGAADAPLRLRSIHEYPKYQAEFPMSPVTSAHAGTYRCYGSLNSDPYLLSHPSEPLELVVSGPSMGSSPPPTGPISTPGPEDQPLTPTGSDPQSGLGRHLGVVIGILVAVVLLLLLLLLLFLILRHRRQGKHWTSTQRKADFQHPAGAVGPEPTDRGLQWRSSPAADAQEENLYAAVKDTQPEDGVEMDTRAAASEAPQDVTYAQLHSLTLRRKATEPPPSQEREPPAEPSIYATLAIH

B1: Antibody h#2B1 (antibody, V domains shown)
VH: EVQLVESGGGLVQPGGSLRLSCAVSGYSITSGYYWNWIRQAPGKGLEWVAYISYDGNNNYNPSLKNRFTISRDASKNTVYLQMNSLRAEDTAVYYCAREESTMITTAWFAYWGQGTLVTVSS
VL: DIQMTQSPSSLSASVGDRVTITCRASENIYSNLAWYQQKPGKAPKLLIYGATNLASGVPSRFSGSGSGTDYTLTISSLQPEDFATYYCQHFWDTPYTFGQGTKVEIK
notes: Humanized variant of 11B12
B1 registered a half-maximal effective concentration (EC50) in test [1] of 0.219 nM. In test [2], the Bmax was 606000 RFU and the dissociation constant Kd came to 0.256 nM. Moreover, the Span in test [3] stood at 8850 RFU.

B2: Antibody h#2D2 (antibody, V domains shown)
VH: EVQLVESGGGLVQPGGSLRLSCAVSGYSITSGYYWNWIRQAPGKGLEWVAYISYDGNNNYNPSLKNRFTISRDASKNTFYLQMNSLRAEDTAVYYCAREESTMITTAWFAYWGQGTLVTVSS
VL: DIQMTQSPSSLSASVGDRVTITCRASENIYSNLAWYQQKPGKAPKLLIYGATNLASGVPSRFSGSGSGTDYTLTISSLQPEDFATYYCQHFWDTPYTFGQGTKVEIK
notes: Humanized variant of 11B12
B2 showed an EC50 in test [1] of 0.131 nM. In test [4], this molecule returned a Bmax of 608000 RFU and a Kd of 0.362 nM. The Span in test [3] is 7640 RFU.

B3: Antibody h#2E2 (antibody, V domains shown)
VH: EVQLVESGGGLVQPGGSLRLSCAVSGYSITSGYYWNWIRQAPGKGLEWVAYISYDGNNNYNPSLKNRFTISRDTSKNTVYLQMNSLRAEDTAVYYCAREESTMITTAWFAYWGQGTLVTVSS
VL: DIQMTQSPSSLSASVGDRVTITCRASENIYSNLAWYQQKPGKAPKLLIYGATNLASGVPSRFSGSGSGTDYTLTISSLQPEDFATYYCQHFWDTPYTFGQGTKVEIK
notes: Humanized variant of 11B12
B3: the EC50 in test [1] stood at 0.389 nM. Besides, in test [2], the Bmax worked out at 615000 RFU and the Kd was determined as 0.317 nM. The molecule further displayed a Span in test [3] of 8780 RFU.
